Substitutions are numbered along the chain they refer to. Values belong to the binder of their own block, whether it stands above or below them.
What was measured:
human MerTK [1] = biological target: T1, human MerTK (human, UniProt Q12866 26-499); assay: SPR BIAcore T200, Ab captured, 25C
T1 construct: also called HuMER
T1 sequence: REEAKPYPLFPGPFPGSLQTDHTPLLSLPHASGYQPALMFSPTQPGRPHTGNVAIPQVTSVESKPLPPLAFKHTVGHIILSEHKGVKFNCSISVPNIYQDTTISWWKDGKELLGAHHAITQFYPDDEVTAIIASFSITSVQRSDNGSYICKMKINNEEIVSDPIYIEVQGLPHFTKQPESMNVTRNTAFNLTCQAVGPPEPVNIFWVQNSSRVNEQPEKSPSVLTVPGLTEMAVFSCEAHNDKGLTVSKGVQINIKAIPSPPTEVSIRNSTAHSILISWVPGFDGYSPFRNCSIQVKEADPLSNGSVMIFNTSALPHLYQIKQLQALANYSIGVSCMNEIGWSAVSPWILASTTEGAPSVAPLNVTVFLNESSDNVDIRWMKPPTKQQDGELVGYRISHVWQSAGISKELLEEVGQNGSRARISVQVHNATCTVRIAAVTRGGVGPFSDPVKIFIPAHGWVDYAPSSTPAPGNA
Procedure: (§1) All binding affinity determinations were obtained using Surface Plasmon Resonance (SPR) measurements from a BIAcore™-T200 instrument. Briefly, each rabbit or humanized antibody was captured to achieve approximately 100 RU (Response Units). Then, 3-fold serial dilutions of MerTK from various species (0.4 nM to 100 nM) diluted in HBS-EP buffer (0.01M HEPES pH 7.4, 0.15M NaCl, 3 mM EDTA and 0.05% v/v surfactant P20) was injected into the BIAcore™-T200 instrument at 25° C. or 37° C. with a flow rate of 30 μl/min. Association rates (kₒₙ) and dissociation rates (koff) were calculated using a simple one-to-one Langmuir binding model (BIAcore T200 evaluation software version 2.0). The equilibrium dissociation constant (KD) was calculated as the ratio koff/kₒₙ.

cynomolgus monkey MerTK = biological target: T2, cynomolgus monkey MerTK (cynomolgus monkey, UniProt A0A2K5V1H9 32-505); assay: SPR BIAcore T200, Ab captured, 25C
T2 construct: Soluble analyte in SPR; also called Cyno MerTK
T2 sequence: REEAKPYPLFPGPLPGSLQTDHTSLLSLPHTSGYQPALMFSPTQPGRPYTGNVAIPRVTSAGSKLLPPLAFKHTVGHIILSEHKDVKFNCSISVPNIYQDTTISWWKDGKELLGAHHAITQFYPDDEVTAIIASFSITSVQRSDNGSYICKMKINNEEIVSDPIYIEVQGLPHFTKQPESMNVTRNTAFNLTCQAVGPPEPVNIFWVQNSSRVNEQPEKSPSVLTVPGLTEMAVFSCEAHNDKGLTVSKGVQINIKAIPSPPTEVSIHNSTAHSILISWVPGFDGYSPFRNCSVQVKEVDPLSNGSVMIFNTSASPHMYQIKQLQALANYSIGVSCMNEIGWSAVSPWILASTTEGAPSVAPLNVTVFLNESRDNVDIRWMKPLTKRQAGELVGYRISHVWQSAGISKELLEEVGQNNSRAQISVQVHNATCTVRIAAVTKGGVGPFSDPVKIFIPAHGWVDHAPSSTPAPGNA
Procedure: as §1

mouse MerTK = biological target: T3, mouse MerTK (mouse, UniProt Q60805 23-496); assay: SPR BIAcore T200, Ab captured, 25C
T3 construct: also called MuMER
T3 sequence (looked up): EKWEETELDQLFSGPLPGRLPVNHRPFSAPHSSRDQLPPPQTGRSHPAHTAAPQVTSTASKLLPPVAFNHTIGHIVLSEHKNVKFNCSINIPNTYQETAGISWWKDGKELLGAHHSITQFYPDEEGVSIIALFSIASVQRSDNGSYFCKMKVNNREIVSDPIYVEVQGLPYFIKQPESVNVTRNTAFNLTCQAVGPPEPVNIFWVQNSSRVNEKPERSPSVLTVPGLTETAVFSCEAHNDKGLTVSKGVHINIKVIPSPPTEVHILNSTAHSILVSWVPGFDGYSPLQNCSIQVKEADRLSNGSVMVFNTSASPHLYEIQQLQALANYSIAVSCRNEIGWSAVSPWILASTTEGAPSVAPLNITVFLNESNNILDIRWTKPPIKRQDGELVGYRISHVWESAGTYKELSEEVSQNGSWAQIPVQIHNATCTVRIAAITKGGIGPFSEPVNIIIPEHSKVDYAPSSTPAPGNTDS
Procedure: as §1

HuMER (R26-A499) = biological target: T4, HuMER (R26-A499) (human, UniProt Q12866 26-499); assay: SPR BIAcore T200, Ab captured, 25C
T4 construct: Extracellular domain with both Ig-like and both fibronectin-like domains; also called human MerTK extracellular domain
T4 sequence: T1 sequence
Procedure: (§2) Binding affinity determinations were obtained using Surface Plasmon Resonance (SRP) measurements from a BIAcore™-T200 instrument. Briefly, each rabbit antibody was captured to achieve approximately 100 RU (Response Units). Then, 3-fold serial dilutions of the various MerTK domains (0.4 nM to 100 nM) diluted in HBS-EP buffer (0.01M HEPES pH 7.4, 0.15M NaCl, 3 mM EDTA and 0.05% v/v surfactant P20) was injected into the BIAcore™-T200 instrument at 25° C. or 37° C. with a flow rate of 30 μl/min. Association rates (kₒₙ) and dissociation rates (koff) were calculated using a simple one-to-one Langmuir binding model (BIAcore T200 evaluation software version 2.0). The equilibrium dissociation constant (KD) was calculated as the ratio koff/kₒₙ.
(§3) Antibody epitope determination was assessed by BIAcore analysis for rabbit antibodies binding against both the human and mouse MerTK extracellular domain (HuMER R26-A499 and MuMER E23-S496), Ig1&2 domain, Ig1-only domain, and Ig2-only domain (TABLE 18). Human MerTK and its domains are shown in light gray, while mouse MerTK and its domains are shown in dark gray.

MuMER (E23-S496) = biological target: T5, MuMER (E23-S496) (mouse, UniProt Q60805 23-496); assay: SPR BIAcore T200, Ab captured, 25C
T5 construct: range 23-496; also called mouse MerTK extracellular domain
T5 sequence (looked up): T3 sequence (looked up)
Procedure: as §2, §3

human MerTK [2] = biological target: T1, human MerTK; assay: SPR BIAcore T200, Ab captured, 37C
Procedure: as §2, with “Each humanized mutation variant was subject to BIAcore analysis to determine the important rabbit residues for binding and stability. Binding” for “Binding”, “humanized mutation variant” for “rabbit”, “human” for “the various”, “MerTK” for “MerTK domains”, “at” for “at 25° C. or”

B1: Rbt8F4 (antibody, V domains shown)
VH: QSVQESGGRLVTPGTPLTLTCTVSGFSLINYPMSWVRQAPGKGLEWIGVISSTGGTNYASWAKGRFTISKTSTTVDLKITSPTTEDTATYFCARVDFLVYLGGAYIIWGLDLWGQGTLVTVSS
VL: AAVLTQTPSPVSAAVGGTVTINCQSSPNIYSNYLSWFQQKPGQPPKILIYGASTLASGVPSRFKGSGSGTQFTLTISDVQCDDAATYYCAGGYSDSSEAYAFGGGTEVVVK
notes: Recombinant rabbit monoclonal antibody, Expi293, protein A purified
Kd (human MerTK [1]): 44 nM | Kd (cynomolgus monkey MerTK): 14.7 nM | Kd (mouse MerTK): 2.3 nM | Kd (HuMER (R26-A499)): 44 nM | Kd (MuMER (E23-S496)): 2.3 nM

B2: Rbt13D8 (antibody, V domains shown)
VH: QSLEESGGRLVTPGTPLTLTCTVSGFSFSSYSMGWVRQAPGKGPEYIGVISASGTTYYASWVNGRFTISKTSTTMDLKMTSPTAADTATYFCARAAFTAYNRGSCVIHRLDLWGQGTLVTVSS
VL: AQVLTQTASSVSAAVGGTVTINCQASQSVYDSKWLAWYQQKPGQPPKLLIYSASTLASGVPSRFKGSGSGTQFTLTISDLECDDAATYYCAGAYTDNIVFGGGTEVVVK
notes: as for B1
Kd (human MerTK [1]): 4.3 nM | Kd (cynomolgus monkey MerTK): 3.8 nM | Kd (mouse MerTK): 1.2 nM | Kd (HuMER (R26-A499)): 4.3 nM | Kd (MuMER (E23-S496)): 1.2 nM

B8: h9E3.FN.V1 LC A2I (antibody, human IgG1, name in Kabat numbering, V domains shown)
VH: EQQLVESGGGLIQPGGSLRLSCAVSGFSLSSNAMSWVRQAPGKGLEWIGIISSSGSTYSASWAKGRFTISKDSSKNTMYLQMNSLRAEDTAVYFCARVGFFVGYGAYDYGIIHRLDLWGQGTLVTVSS
VL: DIQLTQSPSTLSASVGDRVTITCQSSKSIYNNNWLSWYQQKPGKPPKLLIYDASDLASGVPSRFSGSGSGTEFTLTISSLQPDDFATYYCAGGYSGDSDYAFGGGTKVEIK
notes: Framework variant of h9E3.FN.v1 (human IgG1)
Kd (human MerTK [2]): 10.7 nM

B9: h9E3.FN.V1 LC P43A (antibody, name in Kabat numbering, V domains shown)
VH: B8 VH
VL: B8 VL with I2A, P45A
notes: as for B8
Kd (human MerTK [2]): 15 nM

B10: h9E3.FN.V1 HC V24A (antibody, human IgG1, name in Kabat numbering, V domains shown)
VH: B8 VH with V24A
VL: B8 VL with I2A
notes: as for B8
Kd (human MerTK [2]): 8.7 nM

Further lines, results first:

Kd (human MerTK [1]): 94 nM | Kd (cynomolgus monkey MerTK): 82.2 nM | Kd (mouse MerTK): 2.2 nM | Kd (HuMER (R26-A499)): 94 nM | Kd (MuMER (E23-S496)): 2.2 nM
B3: Rbt22C4 (antibody, V domains shown)
VH: QSVEESGGRLVTPGTPLTLTCTVSGFSLSTYSMSWVRQAPGKGLEWLGIVSVAIDPVYATWARGRFTISRTSTTVNLKITSPTTEDTATYFCVRVAFSTNGIPHRLDLWGQGTLVTVSS
VL: AQVLTQTASSVSAAVGGTVTISCQSSPSVYNHNWLSWYQQKPGQPPKLLIYEASKLASGVPSRFSGSGSGTQFTLTISDVQCDEAATYYCAGGFSSGSDSFAFGGGTEVVVT
notes: as for B1

Kd (human MerTK [2]): 12.5 nM
B4: h9E3.FN.V1 HC M78L (antibody, human IgG1, name in Kabat numbering, V domains shown)
VH: B8 VH with M78L
VL: B8 VL with I2A
notes: as for B8

Kd (human MerTK [2]): 10.2 nM
B5: h9E3.FN.V1 HC Q2V (antibody, human IgG1, name in Kabat numbering, V domains shown)
VH: B8 VH with Q2V
VL: B8 VL with I2A
notes: as for B8

Kd (human MerTK [2]): 12.3 nM
B6: h9E3.FN.V1 HC S73N (antibody, human IgG1, name in Kabat numbering, V domains shown)
VH: B8 VH with S73N
VL: B8 VL with I2A
notes: as for B8

Kd (human MerTK [2]): 7.5 nM
B7: h9E3.FN.V1 LC L4M (antibody, human IgG1, name in Kabat numbering, V domains shown)
VH: B8 VH
VL: B8 VL with I2A, L4M
notes: as for B8
